The source of these data is patent US8980581B2, “Site-specific incorporation of amino acids into molecules” (California Institute of Technology, priority 2006, dated 2015).

≈ marks a conversion by molar mass, not a printed value. Read-outs that look alike come from different tables or passages of the source.

Series [1] deals with (T415A) yeast phenylalanine aminoacyl tRNA synthetase (PheRS) (Saccharomyces cerevisiae, UniProt P15625, T415A). The class given is biochemical.
In series [2] the test system is Escherichia coli. The following applies: E. coli cells, cited from earlier work.
For series [3], the target named is T1, mutant yeast PheRS with mutations in N412G, S418C, T415G and S437F (Saccharomyces cerevisiae, UniProt P15625, N412G/S418C/S437F/T415G).
T1 construct: expressed in transfected cells; host or cells: E. coli AFW and DHF cells carrying pQE9_GFP6/GFP9_yPheRS library plasmids
The experiment in a line: yeast PheRS library GFP/FACS screening, incorporation at UUU codon. Format: cell-based. The note with it: mutant yPheRS N412G, S437F after two cycles of screening.

Series [4] has as its target mu-yPheRS (Thr415Gly or Thr415Ala mutation in the α-subunit) (Saccharomyces cerevisiae, UniProt P15625, T415G). The series can be described thus: adenosine triphosphate-pyrophosphate exchange assay, activation of NaI and Phe by mu-yPheRS. The class given is biochemical. As for the experimental part: The modified yeast PheRS (mu-yPheRS) was prepared by introduction of a Thr415Gly or Thr415Ala mutation in the α-subunit of the synthetase (Datta et al., J. Am. Chem. Soc. 124: 5652, 2002). The kinetics of activation of NaI and Phe by mu-yPheRS were analyzed in vitro via the adenosine triphosphate-pyrophosphate exchange assay. […] In addition, the T415G mutant was generated by four-primer mutagenesis.

The target of series [5] is modified yeast PheRS (T415G) and tRNA^Phe with an amber suppressor (Saccharomyces cerevisiae, UniProt P15625, T415G). The class given is cell-based. The note with it: FIG. 13 mass spectra.
Series [6] deals with N[C@@H](Cc1ccccc1)C(=O)O. The series can be described thus: purified protein, by the assay type. The note with it: pH 7.6.
In series [7] the test system is N[C@@H](Cc1c[nH]c2ccccc12)C(=O)O. The series can be described thus: purified protein, by the assay type. The note with it: pH 7.6.
Series [8] deals with N[C@@H](Cc1ccc2ccccc2c1)C(=O)O. The experiment in a line: purified protein, by the assay type. The note with it: pH 7.6.
Substrate in series [9]: N[C@@H](Cc1ccccc1)C(=O)O
The series can be described thus: ATP-PPi exchange of amino acids by wild type yPheRS, Example 3. The class given is biochemical, Saccharomyces cerevisiae. The note with it: other: enzyme wild type; pH 7.6. As for the experimental part:
The amino acid dependent ATP-PP; exchange reaction was used to evaluate the activation of non-natural amino acids by yPheRS. The assay was performed in 200 mincroliters of reaction buffer containing 50 mM HEPES (pH=7.6), 20 mM MgCl2, 1 mM DTT, 2 mM ATP and 2 mM [^32P]-PPi with specific activity of 0.2-0.5 TBq/mol. Depending on the activity of the various non-natural amino acids with the synthetase, the amino acid concentration varied from 10 microM to 5 mM and enzyme concentration varied from 10 nM to 100 nM. Aliquots of 20 microliters were removed from the reaction solution at various time points and quenched into 500 microliters of buffer solution containing 200 mM NaPPi, 7% w/v HClO4 and 3% w/v activated charcoal. The charcoal was spun down and washed twice with 500 microliters of 10 mM NaPPi and 0.5% HclO4 solution. The radio-labeled ATP absorbed into the charcoal was quantified via liquid scintillation methods. The specificity constants were calculated by nonlinear regression fit of the data to a Michaelis Menten model. The kinetic parameters for the ATP-PPi exchange of amino acids by the yPheRS (T415G), wild type yPheRS, and yPheRS_naph variant are shown in the table below.

Chain of (T415A) yeast phenylalanine aminoacyl tRNA synthetase (PheRS) (P15624 whole entry): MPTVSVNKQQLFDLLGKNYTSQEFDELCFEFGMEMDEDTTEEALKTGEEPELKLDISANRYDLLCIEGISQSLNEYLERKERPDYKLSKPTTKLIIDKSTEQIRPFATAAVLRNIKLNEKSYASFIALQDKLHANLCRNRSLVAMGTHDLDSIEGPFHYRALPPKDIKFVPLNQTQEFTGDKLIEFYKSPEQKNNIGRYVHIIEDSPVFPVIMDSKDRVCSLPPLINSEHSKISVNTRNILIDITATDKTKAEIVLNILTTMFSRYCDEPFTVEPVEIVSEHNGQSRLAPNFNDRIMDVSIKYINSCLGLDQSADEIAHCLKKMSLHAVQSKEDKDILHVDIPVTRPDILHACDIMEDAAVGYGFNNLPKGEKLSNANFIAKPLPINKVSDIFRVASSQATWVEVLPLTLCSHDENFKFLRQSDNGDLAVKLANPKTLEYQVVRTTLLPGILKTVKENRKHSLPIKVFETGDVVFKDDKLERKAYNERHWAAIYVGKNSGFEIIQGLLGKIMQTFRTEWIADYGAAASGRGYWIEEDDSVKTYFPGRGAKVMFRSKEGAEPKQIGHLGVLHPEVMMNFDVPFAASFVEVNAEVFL
Chain of (T415A) yeast phenylalanine aminoacyl tRNA synthetase (PheRS) (P15625 whole entry T415A): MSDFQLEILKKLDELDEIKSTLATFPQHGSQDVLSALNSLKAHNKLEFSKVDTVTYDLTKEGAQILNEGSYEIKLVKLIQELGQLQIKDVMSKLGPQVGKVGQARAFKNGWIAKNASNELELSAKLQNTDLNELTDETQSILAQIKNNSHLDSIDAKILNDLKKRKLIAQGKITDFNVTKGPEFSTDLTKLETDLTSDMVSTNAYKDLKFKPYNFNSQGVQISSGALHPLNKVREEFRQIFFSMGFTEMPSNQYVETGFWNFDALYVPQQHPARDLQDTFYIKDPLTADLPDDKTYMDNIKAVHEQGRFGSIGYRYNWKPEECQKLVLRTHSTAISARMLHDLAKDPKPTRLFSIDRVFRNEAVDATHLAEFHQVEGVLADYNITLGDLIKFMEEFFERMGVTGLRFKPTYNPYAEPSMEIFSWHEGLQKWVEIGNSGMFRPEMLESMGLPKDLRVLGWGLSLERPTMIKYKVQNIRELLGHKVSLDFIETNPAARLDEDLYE
Chain of mu-yPheRS (Thr415Gly or Thr415Ala mutation in the α-subunit) (P15625 2-503 T415G): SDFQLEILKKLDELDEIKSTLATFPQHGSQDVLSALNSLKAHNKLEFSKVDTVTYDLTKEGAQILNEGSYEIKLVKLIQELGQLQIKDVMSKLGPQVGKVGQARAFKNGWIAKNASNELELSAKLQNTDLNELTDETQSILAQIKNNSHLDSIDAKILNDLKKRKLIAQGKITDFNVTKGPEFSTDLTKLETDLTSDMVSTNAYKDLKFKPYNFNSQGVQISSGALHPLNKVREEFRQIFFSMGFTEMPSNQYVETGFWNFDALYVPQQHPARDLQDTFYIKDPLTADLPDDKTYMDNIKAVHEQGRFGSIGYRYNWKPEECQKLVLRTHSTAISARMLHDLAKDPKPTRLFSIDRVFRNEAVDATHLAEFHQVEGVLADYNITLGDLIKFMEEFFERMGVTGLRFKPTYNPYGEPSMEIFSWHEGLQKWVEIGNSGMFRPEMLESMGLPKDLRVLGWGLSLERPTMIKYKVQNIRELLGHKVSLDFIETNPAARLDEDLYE
Chain of mu-yPheRS (Thr415Gly or Thr415Ala mutation in the α-subunit) (P15624 2-595, further chain): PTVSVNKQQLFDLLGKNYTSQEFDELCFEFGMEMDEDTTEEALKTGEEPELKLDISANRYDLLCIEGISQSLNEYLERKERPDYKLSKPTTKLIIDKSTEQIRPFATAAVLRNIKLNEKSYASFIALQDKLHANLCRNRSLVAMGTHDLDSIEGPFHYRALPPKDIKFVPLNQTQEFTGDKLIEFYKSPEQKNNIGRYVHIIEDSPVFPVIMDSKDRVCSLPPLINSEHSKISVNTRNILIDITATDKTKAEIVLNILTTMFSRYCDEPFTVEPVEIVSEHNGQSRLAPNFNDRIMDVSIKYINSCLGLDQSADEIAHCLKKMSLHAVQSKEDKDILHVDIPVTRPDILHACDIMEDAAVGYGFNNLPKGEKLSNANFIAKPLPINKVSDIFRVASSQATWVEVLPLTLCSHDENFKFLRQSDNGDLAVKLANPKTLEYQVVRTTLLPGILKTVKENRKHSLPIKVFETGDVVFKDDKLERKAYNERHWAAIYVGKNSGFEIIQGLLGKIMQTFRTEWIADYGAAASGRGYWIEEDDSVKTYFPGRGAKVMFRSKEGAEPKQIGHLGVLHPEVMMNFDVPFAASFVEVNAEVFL

Turning to `N[C@@H](Cc1ccc(Br)cc1)C(=O)O` [bromophenylalanine, p-bromo-phenylalanine], the “preference for bromophenylalanine than for naturally occurring phenylalanine” value in series [1] is 5 fold.
For `CC1(C)S[C@@H]2[C@H](NC(=O)[C@H](N)c3ccccc3)C(=O)N2[C@H]1C(=O)O` [ampicillin], the values for the IC50 result in [2] (SctRNAGInCUA coexpressed with ScGInRS) and in series [2] (only SctRNAGInCUA expressed) were “about 500 μg/mL” and 20 µg/mL (≈ 57.2 µM), respectively.
On to `N[C@@H](Cc1ccc2ccccc2c1)C(=O)O` [2Nal, 3-(2-naphthyl)alanine], for which the “incorporation at UUU codon” value in series [3] is given as “around 90%”. Besides, the “specificity constant (kcat/KM), fold larger than that for Phe” value in series [4] is given as 8 fold.
Take `C#Cc1ccc(C[C@H](N)C(=O)O)cc1` [p-ethynyl-phenylalanine]: the “incorporation into a test protein” value in [5] is given as “incorporated into a test protein”.
“yPheRS (T415G) (Saccharomyces cerevisiae S288C; T415G)”: in [6] (other: enzyme T415G), the Km – broadly, the concentration of substrate that gives half-maximal velocity – turned out to be 55 ± 14 µM; the kcat (usually the maximal rate divided by the concentration of active sites) was determined as 0.202 ± 0.11 s⁻¹; the kcat/Km (as a rule, the turnover number divided by the Michaelis constant) was 3510 ± 1130 M⁻¹ s⁻¹. In series [7] (other: enzyme T415G), the Km is 2.83 ± 1.6 µM, the kcat was 0.153 ± 0.003 s⁻¹ and the kcat/Km was 63200 ± 34600 M⁻¹ s⁻¹. Besides, in [8] (other: enzyme T415G), the Km was determined as 7.03 ± 0.14 µM, the kcat turned out to be 0.208 ± 0.04 s⁻¹ and the kcat/Km was 29500 ± 5850 M⁻¹ s⁻¹.
Consider “yPheRS_naph variant (Saccharomyces cerevisiae S288C; N412G/S418C/S437F/T415G)”, for which the Km in [6] (other: enzyme naph) was 11010 ± 2688 µM; in [7] (other: enzyme naph), 1424 ± 597 µM; in [8] (other: enzyme naph), 2030 ± 691 µM. Further, the kcat was 0.0095 ± 0.0021 s⁻¹ in series [6] (other: enzyme naph), 0.0035 ± 0.0009 s⁻¹ in series [7] (other: enzyme naph) and 0.03 ± 0.018 s⁻¹ in [8] (other: enzyme naph). Further, the kcat/Km in [6] (other: enzyme naph) is 0.855 ± 0.007 M⁻¹ s⁻¹; in [7] (other: enzyme naph), 2.52 ± 0.44 M⁻¹ s⁻¹; in series [8] (other: enzyme naph) it was 14.5 ± 4.22 M⁻¹ s⁻¹.

B1: wild type yPheRS (Saccharomyces cerevisiae S288C) (protein)
chain: MSDFQLEILKKLDELDEIKSTLATFPQHGSQDVLSALNSLKAHNKLEFSKVDTVTYDLTKEGAQILNEGSYEIKLVKLIQELGQLQIKDVMSKLGPQVGKVGQARAFKNGWIAKNASNELELSAKLQNTDLNELTDETQSILAQIKNNSHLDSIDAKILNDLKKRKLIAQGKITDFNVTKGPEFSTDLTKLETDLTSDMVSTNAYKDLKFKPYNFNSQGVQISSGALHPLNKVREEFRQIFFSMGFTEMPSNQYVETGFWNFDALYVPQQHPARDLQDTFYIKDPLTADLPDDKTYMDNIKAVHEQGRFGSIGYRYNWKPEECQKLVLRTHSTAISARMLHDLAKDPKPTRLFSIDRVFRNEAVDATHLAEFHQVEGVLADYNITLGDLIKFMEEFFERMGVTGLRFKPTYNPYTEPSMEIFSWHEGLQKWVEIGNSGMFRPEMLESMGLPKDLRVLGWGLSLERPTMIKYKVQNIRELLGHKVSLDFIETNPAARLDEDLYE
With B1, in series [9], the Km turned out to be 3.85 ± 0.99 µM, the kcat was determined as 0.181 ± 0.011 s⁻¹ and the kcat/Km was 51000 ± 22700 M⁻¹ s⁻¹.
